Drawing on article PMC5328894, “Characterization of a Bacillus thuringiensis chitinase that binds to cellulose and chitin” (AMB Express, 2017), this text covers Km, kcat and kcat/Km for one protein.

Substrate in the series: CC(=O)N[C@H]1[C@H](Oc2ccc([N+](=O)[O-])cc2)O[C@H](CO)[C@@H](O[C@@H]2O[C@H](CO)[C@@H](O)[C@H](O)[C@H]2NC(C)=O)[C@@H]1O
The series is described as follows: initial-rate hydrolysis, Michaelis-Menten fit. Format: biochemical, Bacillus thuringiensis. The note with it: 50 mM MES-NaOH, pH 6.0, 50 °C, 0.05-0.8 mM substrate. An excerpt:
initial-rate hydrolysis, Michaelis-Menten fit on BthChi74

By Km is commonly meant the concentration of substrate that gives half-maximal velocity. What is called kcat is the maximal rate divided by the concentration of active sites. The kcat/Km is the turnover number divided by the Michaelis constant.

B1: BthChi74 (Bacillus thuringiensis serovar israelensis ATCC 35646) (protein)
chain: MAMRSQKFTLLLLSLLLFLPLFLTNFITPNLALADSPKQSQKIVGYFPSWGVYGRNYQVADIDASKLTHLNYAFADICWKGKHGNPSTHPDNPNKQTWNCKESGVPLQNKEVPNGTLVLGEPWADVTKSYPGSGTTWEDCDKYARCGNFGELKRLKAKYPHLKTIISVGGWTWSNRFSDMAADEKTRKVFAESTVAFLRAYGFDGVDLDWEYPGVETIPGGSYRPEDKQNFTLLLQDVRNALNKAGAEDGKQYLLTIASGASQRYADHTELKKISQILDWINIMTYDFHGGWEATSNHNAALYKDPNDPAANTNFYVDGAIDVYTNEGVPVDKLVLGVPFYGRGWKSCGKENNGQYQPCKPGSDGKLASKGTWDDYSTGDTGVYDYGDLTANYVNKNGFVRYWNDTAKVPYLYNATTGTFISYDDNESMKYKTDYIKTKGLSGAMFWELSGDCRTSPKYSCSGPKLLDTLVKELLGGPINQKDTEPPTNVKNIIVTNKTSSSVQLSWTASTDNVGVTEYEITAGEEKWSATTNSITIKNLKPNTEYTFSVIAKDASGNKSHPTALTVKTDEANTTPPDGNGTATFSVTSNWGSGYNFSIIIKNNGTIPIKNWKLEFDYSGNLTQVWDSKISSKTNNHYVITNAGWNGEIPPGGSITIGGAGTGNPAELLNAVISEN
notes: GH18 catalytic domain + FNIII + CBM2; pET21d(+), E. coli BL21(DE3); vector-derived additions at N- and C-termini, C-terminal His6 designed but probably lost by processing; expected 76 kDa, 74 kDa on SDS-PAGE
Consider B1, for which the Km turned out to be 159 ± 0.5 µM, the kcat was found to be 1.5 ± 0.02 s⁻¹ and the kcat/Km is 10000 M⁻¹ s⁻¹.
